Consider 36 molecules from patent US20200102347A1 (AUCTUS BIOLOGIES, published 2020).

In general, Kd refers to the concentration at which binding is half-saturated. In general, kon refers to a measure of how fast the partners come together. By koff is commonly meant the first-order rate constant of dissociation. Read a high koff as fast dissociation.

The target in assay [1] is T1, NativeRPtag(large)_with_Tags_and_Cys (Thermoanaerobacter tengcongensis).
T1 construct: Unlabeled in anisotropy assays; coupled through the engineered N-terminal Cys to SulfoLink agarose or maleimide plates in column, pull-down and ELISA assays
T1 chain: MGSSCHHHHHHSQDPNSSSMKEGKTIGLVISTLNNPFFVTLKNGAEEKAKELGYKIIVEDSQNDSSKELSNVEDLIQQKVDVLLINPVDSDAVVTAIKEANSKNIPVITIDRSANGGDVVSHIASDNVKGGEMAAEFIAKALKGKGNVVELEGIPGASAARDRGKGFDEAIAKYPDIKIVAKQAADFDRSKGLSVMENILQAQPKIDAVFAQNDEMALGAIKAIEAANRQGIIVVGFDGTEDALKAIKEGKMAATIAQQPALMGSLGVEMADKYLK
The assay is described as follows: fluorescence anisotropy. For orientation: In fluorescence polarisation assays a small probe gives low polarisation when free and higher when bound to something large.

The target in assay [2] is T1, NativeRPtag(large)_with_Tags_and_Cys. The assay is described as follows: calculated from koff and Kd.
For assay [3] the target is unchanged. The assay can be described thus: fluorescence anisotropy, competitor chase.
Assay [4] shares this target. The assay is described as follows: fluorescence anisotropy, association kinetics.

No end group written: not given here. *: point of attachment. RhodamineB = CCN(CC)c1ccc2c(-c3ccccc3C(=O)*)c3ccc(=[N+](CC)CC)cc-3oc2c1

Molecule RPtag(small) Nd2, k3a, e18a (peptide) displayed a dissociation constant (Kd) in assay [1] of 0.88 nM. The kon in assay [2] was 433000 M⁻¹ s⁻¹. Moreover, the dissociation rate constant (koff) in assay [3] is 0.000533 s⁻¹.

With RhodamineB-GEKIPNFIPAELKLI [RPtag(small) Cd6], in assay [1], the Kd is 200 nM. The same molecule returned a koff in assay [3] greater than 0.0333 s⁻¹.

RhodamineB-FIPAELKLITK [RPtag(small) Nd6, Cd4]: binding in assay [1] was put at a Kd of 9.9 nM. The same molecule showed a dissociation rate constant (koff) in assay [3] greater than 0.0333 s⁻¹.

In turn, RhodamineB-ELKLIT [RPtag(small) Nd10, Cd5] showed a Kd in assay [1] of 250 nM. Besides, the koff in assay [3] was greater than 0.0333 s⁻¹.

In assay [1], RhodamineB-IPNFIPAELKLITKENVQ [RPtag(small) Nd3] returned a Kd of 0.14 nM. Further, the kon in assay [2] is 1.47e+06 M⁻¹ s⁻¹. The molecule also registered a koff in assay [3] of 0.0002 s⁻¹.

In assay [1], RhodamineB-GEKIPNFIPAELKL [RPtag(small) Cd7] returned a Kd of 30000 nM. Moreover, the dissociation rate constant (koff) in assay [3] is greater than 0.0333 s⁻¹.

In assay [1], RhodamineB-LITKENVQ [RPtag(small) Nd13] had a Kd of 84000 nM. In assay [3], this molecule yielded a koff greater than 0.0333 s⁻¹.

Consider RhodamineB-FIPAELKLITKE [RPtag(small) Nd6, Cd3], for which binding in assay [1] was put at a Kd of 7.3 nM. In assay [3], this molecule gave a koff greater than 0.0333 s⁻¹.

Consider RhodamineB-FIPAELKLITKA [RPtag(small) Nd6, Cd3, e18a], for which the dissociation constant Kd in assay [1] was determined as 8.2 nM. The molecule also registered a koff in assay [3] greater than 0.0333 s⁻¹.

Consider RhodamineB-PAELKLITKE [RPtag(small) Nd8, Cd3], for which binding in assay [1] was put at a Kd of 11 nM. In addition, the dissociation rate constant (koff) in assay [3] is greater than 0.0333 s⁻¹. In assay [4], the “Keq (S-S*)” value is 6.5, the “kf (S to S*)” value is 0.095 min⁻¹ and the “kr (S* to S)” value was 0.015 min⁻¹.

In the case of RhodamineB-PAELKLITKA [RPtag(small) Nd8, Cd3, e18a], binding in assay [1] was put at a Kd of 13 nM. In assay [3], this molecule displayed an off-rate (koff) greater than 0.0333 s⁻¹.

In assay [1], RhodamineB-PNFIPAELKLITKENVQ [RPtag(small) Nd4] gave a Kd of 0.3 nM. Also, the kon in assay [2] is 1.57e+06 M⁻¹ s⁻¹. The molecule also yielded an off-rate (koff) in assay [3] of 0.000467 s⁻¹.

In the case of RhodamineB-AIANFIPAELKLITKENVQ [RPtag(small) Nd2, k3a, p5a], the dissociation constant (Kd) in assay [1] was determined as 0.55 nM. Moreover, the kon in assay [2] is 400000 M⁻¹ s⁻¹. This molecule came in with an off-rate constant (koff) in assay [3] of 0.00015 s⁻¹.

In turn, RhodamineB-KLITKENVQ [RPtag(small) Nd12] showed a dissociation constant Kd in assay [1] of 520 nM. Besides, in assay [3], the koff was greater than 0.0333 s⁻¹.

In assay [1], RhodamineB-NFIPAELKLITKENVQ [RPtag(small) Nd5] displayed a Kd of 0.59 nM. Moreover, in assay [2], the on-rate constant (kon) is 1.6e+06 M⁻¹ s⁻¹. This molecule also displayed a koff in assay [3] of 0.000933 s⁻¹.

Regarding RhodamineB-IPAELKLITKENVQ [RPtag(small) Nd7], the Kd in assay [1] was found to be 2.4 nM. Further, the kon in assay [2] was 300000 M⁻¹ s⁻¹. The molecule further gave a koff in assay [3] of 0.0007 s⁻¹.

As for RhodamineB-AELKLITKENVQ [RPtag(small) Nd9], the dissociation constant Kd in assay [1] amounted to 4.9 nM. The association rate constant (kon) in assay [2] is 1.37e+06 M⁻¹ s⁻¹. The molecule also registered an off-rate constant (koff) in assay [3] of 0.00667 s⁻¹.

With RhodamineB-GEKIPNFIPAELKLIT [RPtag(small) Cd5], binding in assay [1] was put at a Kd of 3.6 nM. Moreover, in assay [2], the association rate constant (kon) was 1.83e+06 M⁻¹ s⁻¹. In assay [3], this molecule showed a koff of 0.0065 s⁻¹.

In the case of RhodamineB-PAELKLITKENVQ [RPtag(small) Nd8], in assay [1], the Kd is 0.59 nM. Further, in assay [2], the kon was 1.55e+06 M⁻¹ s⁻¹. In addition, the off-rate constant (koff) in assay [3] turned out to be 0.000917 s⁻¹.

Regarding RhodamineB-ELKLITKE [RPtag(small) Nd10, Cd3], binding in assay [1] was characterised by a dissociation constant (Kd) of 57 nM. In assay [3], this molecule gave a koff greater than 0.0333 s⁻¹. Also, in assay [4], the “kf (S to S*)” value was found to be 0.32 min⁻¹ and the “kr (S* to S)” value turned out to be 0.05 min⁻¹.

As to RhodamineB-ELKLITKA [RPtag(small) Nd10, Cd3, e18a], binding in assay [1] was put at a Kd of 71 nM. This molecule gave a dissociation rate constant (koff) in assay [3] greater than 0.0333 s⁻¹.

In assay [1], RhodamineB-IANFIPAELKLITKANVQ [RPtag(small) Nd3, p5a, e18a] registered a Kd of 0.63 nM. The kon in assay [2] was 1.53e+06 M⁻¹ s⁻¹. This molecule came in with an off-rate constant (koff) in assay [3] of 0.000967 s⁻¹.

For RhodamineB-KIPNFIPAELKLITKANVQ [RPtag(small) Nd2, e18a], the dissociation constant (Kd) in assay [1] is 0.13 nM. The on-rate constant (kon) in assay [2] is 1.08e+06 M⁻¹ s⁻¹. Moreover, in assay [3], the koff turned out to be 0.000138 s⁻¹. In assay [4], the “Keq (S-S*)” value came to 0.4, the “kf (S to S*)” value came to 0.044 min⁻¹ and the “kr (S* to S)” value worked out at 0.13 min⁻¹.

Take RhodamineB-KIPNFIPAELKLITKENVQ [RPtag(small) Nd2]: in assay [1], binding was put at a Kd of 0.067 nM. In assay [2], the kon is 883000 M⁻¹ s⁻¹. Further, in assay [3], the off-rate constant (koff) was determined as 5.83e-05 s⁻¹. Moreover, in assay [4], the “Keq (S-S*)” value is 0.7, the “kf (S to S*)” value turned out to be 0.063 min⁻¹ and the “kr (S* to S)” value turned out to be 0.086 min⁻¹.

The molecule RhodamineB-RIANFIPAELKLITKANVQ [RPtag(small) Nd2, k3r, p5a, e18a] displayed a Kd in assay [1] of 0.26 nM. For the same molecule, in assay [2], the kon was 567000 M⁻¹ s⁻¹. The molecule further yielded a dissociation rate constant (koff) in assay [3] of 0.000217 s⁻¹.

Regarding RhodamineB-GAKIPNFIPAELKLITKENVQ [RPtag(small) e2a], the Kd in assay [1] turned out to be 0.1 nM. Also, in assay [2], the association rate constant (kon) is 850000 M⁻¹ s⁻¹. In assay [3], this molecule came in with a koff of 8.83e-05 s⁻¹. For the same molecule, in assay [4], the “Keq (S-S*)” value was found to be 1.9, the “kf (S to S*)” value was determined as 0.084 min⁻¹ and the “kr (S* to S)” value was 0.044 min⁻¹.

RhodamineB-GEKIPNAIPAELKLITKENVQ [RPtag(small) f7a] had a Kd in assay [1] of 2 nM. The on-rate (kon) in assay [2] was 517000 M⁻¹ s⁻¹. Further, the koff in assay [3] turned out to be 0.00105 s⁻¹. In addition, in assay [4], the “Keq (S-S*)” value was 2.2, the “kf (S to S*)” value was 0.08 min⁻¹ and the “kr (S* to S)” value came out at 0.036 min⁻¹.

In the case of RhodamineB-GEKAPNFIPAELKLITKENVQ [RPtag(small) i4a], in assay [1], the equilibrium dissociation constant (Kd) was determined as 0.26 nM. In addition, the kon in assay [2] was 400000 M⁻¹ s⁻¹. In assay [3], the koff was 0.0001 s⁻¹. Also, in assay [4], the “Keq (S-S*)” value was found to be 0.9, the “kf (S to S*)” value is 0.086 min⁻¹ and the “kr (S* to S)” value was 0.098 min⁻¹.

In assay [1], RhodamineB-GEKIPNFIPAELKLITKANVQ [RPtag(small) e18a] yielded a Kd of 0.056 nM. Moreover, the kon in assay [2] was 2.67e+06 M⁻¹ s⁻¹. In assay [3], this molecule had a koff of 0.000145 s⁻¹. For the same molecule, in assay [4], the “Keq (S-S*)” value was found to be 1.1, the “kf (S to S*)” value stood at 0.054 min⁻¹ and the “kr (S* to S)” value was 0.048 min⁻¹.

In turn, RhodamineB-GEKIPNFIPAELKAITKENVQ [RPtag(small) l14a] registered an equilibrium dissociation constant (Kd) in assay [1] of 8.9 nM. In addition, the off-rate (koff) in assay [3] is greater than 0.0333 s⁻¹. For the same molecule, in assay [4], the “Keq (S-S*)” value came out at 1.8, the “kf (S to S*)” value stood at 0.075 min⁻¹ and the “kr (S* to S)” value came out at 0.044 min⁻¹.

In turn, RhodamineB-GEAIPNFIPAELKLITKENVQ [RPtag(small) k3a] displayed a dissociation constant Kd in assay [1] of 0.49 nM. Further, the kon in assay [2] was 183000 M⁻¹ s⁻¹. The molecule further returned a koff in assay [3] of 8.83e-05 s⁻¹.

Regarding RhodamineB-GEKIPNFIPAALKLITKENVQ [RPtag(small) e11a], in assay [1], the Kd amounted to 0.8 nM. Also, the kon in assay [2] was 76700 M⁻¹ s⁻¹. The molecule further came in with an off-rate constant (koff) in assay [3] of 0.000112 s⁻¹. In assay [4], the “Keq (S-S*)” value turned out to be 1.9, the “kf (S to S*)” value stood at 0.08 min⁻¹ and the “kr (S* to S)” value is 0.042 min⁻¹.

For RhodamineB-GEKIPNFIPAELKLITAENVQ [RPtag(small) k17a], the affinity in assay [1], expressed as Kd, was 0.54 nM. Further, in assay [2], the kon was 167000 M⁻¹ s⁻¹. This molecule registered a koff in assay [3] of 9.5e-05 s⁻¹.

The molecule RhodamineB-ELKLITKENVQ [RPtag(small) Nd10] showed a Kd in assay [1] of 5.9 nM. In addition, the on-rate (kon) in assay [2] is 717000 M⁻¹ s⁻¹. The koff in assay [3] amounted to 0.00417 s⁻¹.

Turning to RhodamineB-LKLITKENVQ [RPtag(small) Nd11], the Kd in assay [1] amounted to 16 nM. Further, in assay [2], the kon is 1.18e+06 M⁻¹ s⁻¹. The same molecule yielded a koff in assay [3] of 0.02 s⁻¹.

Regarding RhodamineB-FIPAELKLITKENVQ [RPtag(small) Nd6], in assay [1], the dissociation constant Kd was 0.54 nM. Also, the kon in assay [2] was 2e+06 M⁻¹ s⁻¹. In assay [3], this molecule came in with a koff of 0.00108 s⁻¹.
